Data set [1] can be described thus: Anti-His western blot of EDD and EDA variants expressed in S. cerevisiae (soluble/insoluble fractions). Also on record: species or system Saccharomyces cerevisiae. Conditions: C-terminal HIS tag; total crude extract and solubilized extract. The method, then: Transformation of the p426GPD plasmids containing an edd or an eda variant gene into yeast strain BY4742 was accomplished using the Zymo Research frozen-EZ yeast transformation II kit according to the manufacturer's protocol. The transformed BY4742 cells were selected by growth on a synthetic dextrose medium (SD) (0.67% yeast nitrogen base-2% dextrose) containing complete amino acids minus uracil (Krackeler Scientific Inc). Plates were incubated at about 30° C. for about 48 hours. Transformant colonies for each edd and eda variant were inoculated onto 5 ml of SD minus uracil medium and cells were grown at about 30° C. and shaken at about 250 rpm for about 24 hours. Cells were harvested by centrifugation at 1000×g for about 5 minutes, after which protein crude extract was prepared with Y-PER Plus (Thermo Scientific) according to the manufacturer's instructions. Whole cell extract protein concentrations were determined using the Coomassie Plus Protein Assay (Thermo Scientific) according to the manufacturer's directions. For each edd and eda variant His-tagged construct, about 10 μg of soluble and insoluble fractions were loaded on 4-12% NuPAGE Novex Bis-Tris protein gels (Invitrogen) and proteins were analyzed by western using anti-(His)6 (SEQ ID NO: 138) mouse monoclonal antibody (Abcam) and HRP-conjugated secondary antibody (Abcam). […]
(In general: In western blotting, separated proteins are transferred to a membrane and probed.)

Data set [2] can be described thus: Xylose isomerase activity/kinetic assay on soluble whole cell extract (sorbitol dehydrogenase coupled, NADH, A340). As to conditions: xylose isomerase expressed in S. cerevisiae, total soluble crude extract; xylose concentrations between 40 and 500 nM (so in the source); Michaelis Mentin plots. The data set is classed as biochemical. The method, then: […] Louis, Mo.), and about 2 U sorbitol dehydrogenase (Roche) at about 30° C. […] A Beckman DU-800 was utilized with an Enzyme Mechanism software package (Beckman Coulter, Inc.), and the change in the A340 was monitored for 2-3 minutes.
[…] Louis, Mo.), and 2 U Sorbitol Dehydrogenase (SDH) (Roche, Indianapolis, Ind.) at about 30° C. […] A Beckman DU-800 spectrophotometer was utilized with an Enzyme Mechanism software package (Beckman Coulter, Inc, Brea, Calif.), and the change in the A340 was monitored for 2-3 minutes.
[…] Louis, Mo.), and 2 U sorbitol dehydrogenase (SDH) (Roche, Indianapolis, Ind.) at about 30° C. […] A Beckman DU-800 spectrophotometer was utilized with an Enzyme Mechanism software package (Beckman Coulter, Inc, Brea, Calif.), and the change in the A340 was monitored for 2-3 minutes.
Approximately 20 μg of soluble whole cell extract from each transformed cell line was prepared using Y-PER plus reagent as described above was incubated in a solution containing about 100 mM Tris, pH 7.5, 10 mM MgCl ? 2, 0.15 mM NADH (Sigma, St. Louis, Mo.), and 2 U Sorbitol Dehydrogenase (SDH) (Roche, Indianapolis, Ind.) at about 30° C. […] A Beckman DU-800 spectrophotometer was utilized with an Enzyme Mechanism software package (Beckman Coulter, Inc, Brea, Calif.), and the change in the A340 was monitored for 2-3 minutes.

Data set [3] has as its system engineered yeast (S. cerevisiae). In words: Heterologous xylose isomerase expression in yeast (active yes/no). The data set is classed as cell-based. As to conditions: xylose isomerase of donor organism expressed in engineered yeast (S. cerevisiae).
Data set [4] in a line: In vivo evaluation of xylose isomerase constructs in C5 strain: xylose fermentation, aerobic then anaerobic. Format: cell-based, Saccharomyces cerevisiae. As to conditions: harvest at 372 hours. An excerpt:
The engineered strain was designed to include the following genetic modifications: the native Pho13 gene (alkaline phosphatase specific for p-nitrophenyl phosphate) was disrupted by inserting a construct containing the native TLK1 gene (Transketolase-1); the native aldose reductase gene (Gre3) was disrupted by inserting a construct containing the native high-affinity glucose transporter-7 gene (HXT7); the native glucose-repressible alcohol dehydrogenase II gene (adh2) was disrupted by inserting a construct containing the native xylulokinase gene (XYLK); and the native orotidine-5′ phosphate decarboxylase gene (ura3) was disrupted by inserting a construct containing the native transaldolase 1 gene […]. The resulting strain had the following genotype: pho13::TKL1, gre3::HXT7, adh2::XYLK, ura3::TAL1.
The C5 strain was transformed using standard protocols with either p426GPD (as a control) or the chimeric variants XI-R, XI-Rp5, XI-Rp10, or XI-Rp15. The transformed cells were grown on SC-glucose minus uracil initially and then passaged onto SC-xylose minus uracil. Cultures of each of the above constructs were made in SC-xylose minus uracil—and grown for one week. The cultures were grown aerobically at 30° C. with 250 rpm agitation, 1 vvm sparge of process air, 21% O2. The pH was controlled at about 5.0 with 1N NaOH. […] At 24 hours elapsed fermentation time the fermentation was switched to anaerobic conditions. […] Oxygen was purged with 100% N2 sparge at 1 vvm until percent O2 was below 1%. Aeration was then set at 0.25 vvm 100% N2.
The final sample also measured biomass by dry cell weight.

Data set [5] can be described thus: Industrial yeast strain BF903 evaluation: aerobic growth and xylose consumption in YP-xylose. Conditions: commercial yeast strain BF903, YP-xylose with G418, aerobic, 30° C., 7 days. The data set is classed as cell-based, Saccharomyces cerevisiae. The method, then: A commercially available industrial diploid strain of Saccharomyces cerevisiae (strain BF903; “Stillspirits” triple distilled yeast, Brewcraft, Albany, New Zealand; available at Hydrobrew, Oceanside, Calif.) was obtained and was made competent for transformation using known yeast cell transformation procedures. […] Transformed yeast containing each construct were grown overnight aerobically in a 15 ml culture tube on YPD media containing 2% glucose. After about 24 hours, about 25 ml of YP media containing 2% glucose and 100 μg/ml G418 was seeded with the cells at an initial OD600 of 0.5 in a 250 ml Erlenmeyer flask and grown aerobically at 30° C. The cultures were then passaged once every 7 days into fresh media, also at an initial OD600 of 0.5.
Measurements were taken of the cell optical density (OD600) to assess cell density and plated onto YPD with 100 μg/ml G418 to ensure that the plasmid was stable. […] The strains were then grown overnight in YPD (with 100 μg/ml G418) and used to inoculate about 50 ml YP-xylose (with 100 μg/ml G418) into disposable 250 ml Erlenmeyer flasks with vented caps at an initial OD600 of about 1. The cultures were allowed to grow aerobically at 30° C. at 200 rpm for 7 days.

A short description of data set [6]: Industrial yeast strain: serum bottle (anaerobic) growth and ethanol production on xylose. As to conditions: sealed serum bottles, versus vector only control. The data set is classed as cell-based, Saccharomyces cerevisiae. The method, then:
The serum bottles were sealed with a butyl rubber stopper to prevent air exchange. As a result, the cultures became anaerobic once the available oxygen in the serum bottle was utilized. In general, anaerobiosis (e.g., the onset of anaerobic conditions) occurred a few hours after the culture was inoculated. Xylose utilization, ethanol production and cell growth were measured every twenty four hours.

Data set [7] can be described thus: EDA activity assay: S. cerevisiae EDA extracts with saturating E. coli EDD extract (LDH coupled, NADH). The data set is classed as biochemical.
Experimental: EDA genes isolated from a variety of sources were expressed in yeast and evaluated independently of EDA activity, to identify EDA activities suitable of inclusion in an engineered yeast strain. […] The activity of integrated EDAs in Thermosacc-Gold haploids, were also evaluated in this manner.
EDD extractions (adapted from Chemyan et al, Protein Science 16:2368-2377, 2007): • 1) Pellet cells in 50 ml conical tubes, 4° C., 3,000 rpm, 10 mins, discard supernatant. • 2) Resuspend in 2 ml degassed PDGH buffer (20 mM MES pH 6.5, 30 mM NaCl, 5 mM MnCl2, 0.5 mM FeCl2, 10 mM 2-mercaptoethanol, 10 mM cysteine, sparged with nitrogen gas). Move to hungate tube. • 3) Add 0.1% Triton X-100, 10 ng/ml DNase, 10 μg/ml PMSF, 10 μg/ml TAME (Na-(p-toluene sulfonyl)-L-arginine methyl ester), 100 μg/ml lysozyme. • 4) Sparge hungate tube with nitrogen gas, cap and seal. Incubate 2 hours at 37° C., swirl occasionally. • 5) Clarify by centrifugation in 2-ml tube, 4° C., 10 mins, 14,000 rpm. Keep supernatant. • 6) Treat with 150 mM pyruvate and 10 mM sodium cyanoborohydride (work in hood) to inactivate aldolase activity. Incubate 30 mins at room temperature. • 7) During incubation, pre-equilibrate PD-10 column from GE • a. Remove top cap, pour off storage buffer. • b. Cut off bottom tip, fit in 50 ml conical with adapter. • c. Pour 5 ml of 20 mM MES buffer, pH 6.5 (total of 5 times). Discard flow-through. • 8) Run sample through column, then add MES buffer to a total of 2.5 ml volume added. Discard flow-through. • 9) Run 3.5 ml 20 mM MES pH 6.5 buffer to elute protein. Discard column in appropriate waste receptacle. • 10) Perform Bradford assay (1:10 or 1:20 dilution).
• 1) Spin down in 50 ml conicals, 4° C., 3,400 rpm, 5 mins. […]
Each reaction contains 50 mM Tris-HCl, pH 7, 10 mM MgCl2, 0.15 mM NADH, 15 μg LDH, saturating amounts of EDD determined empirically (usually −100 μg), 1-50 μg EDA (depending on level of activity), and 1 mM 6-phosphogluconate. Reactions are started by the addition of 6-phosphogluconate and monitored for 5 mins at 30° C.

Several values for one entry are separate records, joined by “and”; a condition that tells them apart may be missing. Identical values can stand only once.

B1: PAO1 EDD protein: phosphogluconate dehydratase (edd) of Pseudomonas aeruginosa PAO1, SEQ ID NO: 70 (protein, listed as Pseudomonas aeruginosa)
chain: MHPRVLEVTRRIQARSAATRQRYLEMVRAAASKGPHRGTLPCGNLAHGVAACGESDKQTLRLMNQANVAIVSAYNDMLSAHQPFERFPGLIKQALHEIGSVGQFAGGVPAMCDGVTQGEPGMELSLASRDVIAMSTAIALSHNMFDAALCLGVCDKIVPGLLIGSLRFGHLPTVFVPAGPMPTGISNKEKAAVRQLFAEGKATREELLASEMASYHAPGTCTFYGTANTNQLLVEVMGLHLPGASFVNPNTPLRDELTREAARQASRLTPENGNYVPMAEIVDEKAIVNSVVALLATGGSTNHTLHLLAIAQAAGIQLTWQDMSELSHVVPTLARIYPNGQADINHFQAAGGMSFLIRQLLDGGLLHEDVQTVAGPGLRRYTREPFLEDGRLVWREGPERSLDEAILRPLDKPFSAEGGLRLMEGNLGRGVMKVSAVAPEHQVVEAPVRIFHDQASLAAAFKAGELERDLVAVVRFQGPRANGMPELHKLTPFLGVLQDRGFKVALVTDGRMSGASGKVPAAIHVSPEAIAGGPLARLRDGDRVRVDGVNGELRVLVDDAEWQARSLEPAPQDGNLGCGRELFAFMRNAMSSAEEGACSFTESLNGWR
As for B1, in data set [1], the “expression and solubility in S. cerevisiae (western, FIGS. 13A and 13B)” value is “expressed and soluble”.

B2: Ruminococcus xylose isomerase: native xylose isomerase from Ruminococcus flavefaciens strain 17, SEQ ID NO: 31 (protein, listed as Ruminococcus flavefaciens)
chain: MEFFSNIGKIQYQGPKSTDPLSFKYYNPEEVINGKTMREHLKFALSWWHTMGGDGTDMFGCGTTDKTWGQSDPAARAKAKVDAAFEIMDKLSIDYYCFHDRDLSPEYGSLKATNDQLDIVTDYIKEKQGDKFKCLWGTAKCFDHPRFMHGAGTSPSADVFAFSAAQIKKALESTVKLGGNGYVFWGGREGYETLLNTNMGLELDNMARLMKMAVEYGRSIGFKGDFYIEPKPKEPTKHQYDFDTATVLGFLRKYGLDKDFKMNIEANHATLAQHTFQHELRVARDNGVFGSIDANQGDVLLGWDTDQFPTNIYDTTMCMYEVIKAGGFTNGGLNFDAKARRGSFTPEDIFYSYIAGMDAFALGFRAALKLIEDGRIDKFVADRYASWNTGIGADIIAGKADFASLEKYALEKGEVTASLSSGRQEMLESIVNNVLFSL
With B2, the “Specific Activity” value in data set [2] amounted to 0.9605 µmol/min/mg. Also, the “Active? (yes/no)” value in data set [3] is “Yes”. Moreover, the Glucose in data set [4] is on record as 0 g/L. For the same molecule, in data set [4] (listed as XI-R), the Ethanol is 15.65 g/L and 15.5 g/L; the Xylose was 3.14 g/L and 3.85 g/L. For the same molecule, in data set [5], the “xylose consumption (FIG. 11)” value is reported as “more efficient at consuming xylose than the strain carrying the vector control only”. Besides, in data set [6] (YP plus xylose), the “cell density (FIG. 12)” value is listed as “higher cell density”. In data set [6] (xylose as a carbon source), the “ethanol production (FIG. 12)” value was “more ethanol”.

B3: E. coli EDA protein: 2-keto-3-deoxygluconate-6-phosphate aldolase (eda) isolated from E. coli genomic DNA (protein, UniProt P0A955 1-213, looked up)
KHG/KDPG aldolase: MKNWKTSAESILTTGPVVPVIVVKKLEHAVPMAKALVAGGVRVLEVTLRTECAVDAIRAIAKEVPEAIVGAGTVLNPQQLAEVTEAGAQFAISPGLTEPLLKAATEGTIPLIPGISTVSELMLGMDYGLKEFKFFPAEANGGVKALQAIAGPFSQVRFCPTGGISPANYRDYLALKSVLCIGGSWLVPADALEAGDYDRITKLAREAVEGAKL
As for B3, in data set [1], the “expression and solubility in S. cerevisiae (western, FIGS. 13A and 13B)” value is “expressed and soluble”. Besides, the “EDA activity relative to EDA from P. aeruginosa” value in data set [7] (E. coli EDA slope outside the linear range, underestimated) is “approximately 16 fold”. Also, the “EDA activity compared (in words)” value in data set [7] (EDAs expressed in S. cerevisiae, saturating E. coli EDD extract) is “most active”.

Values taken from patent US20120184020A1, “ENGINEERED MICROORGANISMS WITH ENHANCED FERMENTATION ACTIVITY” (Verdezyne, Inc., priority 2009, published 2012).
